Measurements taken from publication PMC9907809, “Conformational rearrangements in the sensory RcsF/OMP complex mediate signal transduction across the bacterial cell envelope” (PLOS Genetics, 2023).

Target: T1, OmpA ( (endogenous in the host …, UniProt P0A910 22-346))
T1 construct: OmpA, outer membrane protein; source: endogenous, in cells / DDM-solubilized membrane fraction
T1 sequence (looked up): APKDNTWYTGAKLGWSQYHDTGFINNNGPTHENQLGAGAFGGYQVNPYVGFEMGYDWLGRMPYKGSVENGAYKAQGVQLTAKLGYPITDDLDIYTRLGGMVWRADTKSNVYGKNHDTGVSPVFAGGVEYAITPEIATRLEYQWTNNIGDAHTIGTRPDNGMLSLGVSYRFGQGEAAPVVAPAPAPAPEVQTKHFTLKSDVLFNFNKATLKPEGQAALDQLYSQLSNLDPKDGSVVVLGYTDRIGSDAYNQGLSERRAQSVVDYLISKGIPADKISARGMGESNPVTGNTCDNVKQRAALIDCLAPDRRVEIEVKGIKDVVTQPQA
Assay: cross-linking; in vivo formaldehyde crosslinking; OM version of RcsF variants with endogenous OmpA (and BamA); immunoblot of whole cell lysates probed with α-RcsF, RcsF/OmpA band quantified relative to the WT
Settings: partners not purified

B1: RcsF(A55V), OM version (natural protein, UniProt P69411 16-134, looked up)
chain: CSMLSRSPVEPVQSTAPQPKAEPAKPKAPRATPVRIYTNVEELVGKPFRDLGEVSGDSCQASNQDSPPSIPTARKRMQINASKMKANAVLLHSCEVTSGTPGCYRQAVCIGSALNITAK
modifications: lipidated N-terminal cysteine (residue 16)
notes: RcsF, sensory outer membrane lipoprotein; mature RcsF = residues 16-134 (NTD 16-48, CTD 49-134); also called GOF[OM] variant; source: expressed from the low copy number vector pZS21 in a ΔrcsF strain; in cells
- percent decrease of RcsF/OmpA complex relative to WT: 50%
